Results: patent publication EP0331471A1, “High molecular weight prodrug derivatives of antiinflammatory drugs” (Larsen, Claus Selch, priority 1988, dated 1989)
Where two headings read alike, the source gives them in different places.

Key:
[1] = Hydrolysis (release kinetics) of dextran ester prodrugs in aqueous buffer solution; type: physicochemical; conditions: for t(50%) at pH 7.40 and 37°C: 0.05 M phosphate buffer pH 7.40, 37°C; for t(10%) / Arrhenius equation: pH 4.48; for t(10%): time for 10% degradation, calculated from Arrhenius equations; for Ea: hydrolysis at pH 4.48, from slopes of Arrhenius type plots; for Arrhenius equation: kobs in hours⁻¹, T in degrees Kelvin; for kobs: ionic strength 0.5
Method: Release kinetics of the parent drug compounds from the corresponding dextran prodrugs of this invention was carried out in aqueous buffer solution over the pH range 4.5 - 10.0 at 37°C (and in order to determine the activation energies, at pH 4.5, from Arrhenius type plots at 50, 60, 65 and 70°C). […] The 1. order rate constants were derived from the slope of linear plots of log(B∞ -Bt) versus time and for the slow reactions by employing the initial rate method (e.g. (dBt/dt)i = kobsAo), where B∞ and Bt refer to the concentrations of regenerated parent drug at infinity and time t, respectively. (dBt/dt)i repre­sents the initial rate of parent drug formation, whereas kobs and Ao are the pseudo-first-order rate constant and the initial dextran prodrug concentration, respectively. For the fast reactions the initial concentration of the conjugates was in the range 5 - 25 mg/10 ml and for the slow reactions in the range 50 - 250 mg/10 ml. At various times an aliquot of the solutions was withdrawn and analyzed by HPLC for liberated free drug and in some cases for intact dextran prodrug.
A HPLC method was used for the determination of the generated free NSAIDs (the HPLC procedure was further used for determination of the degree of substitution of the polysaccharide prodrugs). […] The flow rate was 1.0 ml/min and the column effluent was monitored at 266 nm. […] Quantitation of the compounds was done by measurements of peak heights in relation to those of standards chromatographed under identical conditions.

[2] = Water solubility of the conjugates (25°C)
[3] = pigs, from a previous study (8), cited from earlier work

Compound	t(50%) at pH 7.40 and 37°C [1]	water-solubility [2]	further results
O-[±)-2-(3-phenoxyphenol)propionyl]-dextran T-70 [Example 56]	130 hours	> 20 % w/v	t(10%) ([1]; 5°C): 59.7 years; t(10%) ([1]; 25°C): 2.72 years; Ea [1]: 25.41 kcal/mol; Arrhenius equation [1]: 1n kobs = 30.6 - 12,790/T (n = 5, r = 0.99); kobs ([1]; pH 10.00, 37°C): 1.67 h⁻¹
O-[2-(3-Benzoylphenyl)propionyl]-dextran T-10 [Example 51]	93 hours	> 20 % w/v	–
COc1ccc2cc([C@H](C)C(=O)O)ccc2c1 [NAPROXEN, (+)-2-(6-methoxy-2-napthyl)propionic acid]	–	–	β ([3]; i.v., 3.6 mg naproxen equivalents): 0.048 h⁻¹; β ([3]; naproxen in plasma, p.o.): 0.049 h⁻¹
O-[3-(11β,17-dihydroxy-6α-methylpregna-1,4-diene-3,20-dione-21-oxycarbonyl)propionyl]-dextran T-500 [Example 48]	–	> 20 % w/v	–
O-[2-(4-Isobutylphenyl)propionyl]-dextran T-70 [Example 53]	144 hours	–	t(10%) ([1]; 5°C): 31.5 years; t(10%) ([1]; 25°C): 1.68 years; Ea [1]: 24.14 kcal/mol; Arrhenius equation [1]: 1n kobs =28.9 - 12,140/T (n = 5, r = 0.97)
O-[2-(4-Isobutylphenyl)propionyl]-dextran T-10 [Example 54]	140 hours	> 20 % w/v	–
O-[±)-2-(3-phenoxyphenol)propionyl]-dextran T-500 [Example 58]	131 hours	> 20 % w/v	–
O-[3-(11β,17-dihydroxy-6α-methylpregna-1,4-diene-3,20-dione-21-oxycarbonyl)propionyl]-dextran T-40 [Example 47]	–	> 20 % w/v	–
O-[[2-(2,6-dichloroanilino)phenyl]acetyl]-dextran T-70 [Example 59]	–	> 20 % w/v	t(10%) ([1]; 5°C): 21.3 years; t(10%) ([1]; 25°C): 0.65 years; Ea [1]: 28.73 kcal/mol; Arrhenius equation [1]: 1n kobs = 37.6 - 14,450/T (n = 5, r = 0.99); kobs ([1]; pH 9.54, 37°C): 3.01 h⁻¹
O-[3-(11β,17-dihydroxy-pregn-4-ene-3,20-dione-21-oxycarbonyl)propionyl]-dextran T-70 [Example 49]	–	> 20 % w/v	–
O-[2-(4-Isobutylphenyl)propionyl]-dextran T-500 [Example 55]	141 hours	> 20 % w/v	–
O-[3-(11β,17-dihydroxy-6α-methylpregna-1,4-diene-3,20-dione-21-oxycarbonyl)propionyl]-dextran T-70 [Example 46]	–	> 20 % w/v	–
O-[±)-2-(3-phenoxyphenol)propionyl]-dextran T-10 [Example 57]	128 hours	> 20 % w/v	–
O-[[2-(2,6-dichloroanilino)phenyl]acetyl]-dextran T-10 [Example 60]	–	> 20 % w/v	–
O-[[2-(2,6-dichloroanilino)phenyl]acetyl]-dextran T-500 [Example 61]	–	> 20 % w/v	–
O-[2-(3-Benzoylphenyl)propionyl]-dextran T-500 [Example 52]	91 hours	> 20 % w/v	–
